To fix the notation:
B1: Receptor-like protein kinase 5 (Arabidopsis thaliana (Mouse-ear cress)), P47735 (parent)
chain: MLYCLILLLCLSSTYLPSLSLNQDATILRQAKLGLSDPAQSLSSWSDNNDVTPCKWLGVSCDATSNVVSVDLSSFMLVGPFPSILCHLPSLHSLSLYNNSINGSLSADDFDTCHNLISLDLSENLLVGSIPKSLPFNLPNLKFLEISGNNLSDTIPSSFGEFRKLESLNLAGNFLSGTIPASLGNVTTLKELKLAYNLFSPSQIPSQLGNLTELQVLWLAGCNLVGPIPPSLSRLTSLVNLDLTFNQLTGSIPSWITQLKTVEQIELFNNSFSGELPESMGNMTTLKRFDASMNKLTGKIPDNLNLLNLESLNLFENMLEGPLPESITRSKTLSELKLFNNRLTGVLPSQLGANSPLQYVDLSYNRFSGEIPANVCGEGKLEYLILIDNSFSGEISNNLGKCKSLTRVRLSNNKLSGQIPHGFWGLPRLSLLELSDNSFTGSIPKTIIGAKNLSNLRISKNRFSGSIPNEIGSLNGIIEISGAENDFSGEIPESLVKLKQLSRLDLSKNQLSGEIPRELRGWKNLNELNLANNHLSGEIPKEVGILPVLNYLDLSSNQFSGEIPLELQNLKLNVLNLSYNHLSGKIPPLYANKIYAHDFIGNPGLCVDLDGLCRKITRSKNIGYVWILLTIFLLAGLVFVVGIVMFIAKCRKLRALKSSTLAASKWRSFHKLHFSEHEIADCLDEKNVIGFGSSGKVYKVELRGGEVVAVKKLNKSVKGGDDEYSSDSLNRDVFAAEVETLGTIRHKSIVRLWCCCSSGDCKLLVYEYMPNGSLADVLHGDRKGGVVLGWPERLRIALDAAEGLSYLHHDCVPPIVHRDVKSSNILLDSDYGAKVADFGIAKVGQMSGSKTPEAMSGIAGSCGYIAPEYVYTLRVNEKSDIYSFGVVLLELVTGKQPTDSELGDKDMAKWVCTALDKCGLEPVIDPKLDLKFKEEISKVIHIGLLCTSPLPLNRPSMRKVVIMLQEVSGAVPCSSPNTSKRSKTGGKLSPYYTEDLNSV
partner: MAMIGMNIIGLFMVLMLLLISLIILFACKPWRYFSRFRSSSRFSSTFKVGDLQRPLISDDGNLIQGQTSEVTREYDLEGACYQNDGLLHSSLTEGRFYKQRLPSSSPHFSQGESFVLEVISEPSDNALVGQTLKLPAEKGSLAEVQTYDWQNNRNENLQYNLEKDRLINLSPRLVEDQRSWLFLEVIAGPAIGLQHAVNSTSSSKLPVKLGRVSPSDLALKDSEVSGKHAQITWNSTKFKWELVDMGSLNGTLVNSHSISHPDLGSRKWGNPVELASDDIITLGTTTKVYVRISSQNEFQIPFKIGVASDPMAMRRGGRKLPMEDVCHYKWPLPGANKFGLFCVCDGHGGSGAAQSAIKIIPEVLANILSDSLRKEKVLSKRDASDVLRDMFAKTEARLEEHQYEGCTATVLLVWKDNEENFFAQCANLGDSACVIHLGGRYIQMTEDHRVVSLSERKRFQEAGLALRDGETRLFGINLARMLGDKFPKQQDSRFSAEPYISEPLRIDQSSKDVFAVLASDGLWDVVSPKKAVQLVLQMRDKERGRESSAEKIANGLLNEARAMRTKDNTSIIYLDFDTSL

This is an account of results in IntAct's records for PubMed 7973632.

The variants in this experiment derive from B1. To be noted: with KAPP.
Consider K711E, for which the “effect of a mutation on the interaction” value was “disrupting interaction”.
